Measured values from paper PMC8225741, “Tumor-derived neomorphic mutations in ASXL1 impairs the BAP1-ASXL1-FOXK1/K2 transcription network” (Protein & Cell, 2020).

Biological target: T1, SBP-tagged ASXL1^450–1,300 (human, UniProt Q8IXJ9 450-1300)
T1 construct: ASXL1, human, residues 450–1,300; cDNAs encoding SBP and ASXL1 450-1,300 cloned into pRK7-N-Flag; also called ASXL1 (residues 450–1,300); ASXL^450–1,300; source: HEK293T, overexpressed, immobilized to Streptavidin beads
T1 sequence (looked up): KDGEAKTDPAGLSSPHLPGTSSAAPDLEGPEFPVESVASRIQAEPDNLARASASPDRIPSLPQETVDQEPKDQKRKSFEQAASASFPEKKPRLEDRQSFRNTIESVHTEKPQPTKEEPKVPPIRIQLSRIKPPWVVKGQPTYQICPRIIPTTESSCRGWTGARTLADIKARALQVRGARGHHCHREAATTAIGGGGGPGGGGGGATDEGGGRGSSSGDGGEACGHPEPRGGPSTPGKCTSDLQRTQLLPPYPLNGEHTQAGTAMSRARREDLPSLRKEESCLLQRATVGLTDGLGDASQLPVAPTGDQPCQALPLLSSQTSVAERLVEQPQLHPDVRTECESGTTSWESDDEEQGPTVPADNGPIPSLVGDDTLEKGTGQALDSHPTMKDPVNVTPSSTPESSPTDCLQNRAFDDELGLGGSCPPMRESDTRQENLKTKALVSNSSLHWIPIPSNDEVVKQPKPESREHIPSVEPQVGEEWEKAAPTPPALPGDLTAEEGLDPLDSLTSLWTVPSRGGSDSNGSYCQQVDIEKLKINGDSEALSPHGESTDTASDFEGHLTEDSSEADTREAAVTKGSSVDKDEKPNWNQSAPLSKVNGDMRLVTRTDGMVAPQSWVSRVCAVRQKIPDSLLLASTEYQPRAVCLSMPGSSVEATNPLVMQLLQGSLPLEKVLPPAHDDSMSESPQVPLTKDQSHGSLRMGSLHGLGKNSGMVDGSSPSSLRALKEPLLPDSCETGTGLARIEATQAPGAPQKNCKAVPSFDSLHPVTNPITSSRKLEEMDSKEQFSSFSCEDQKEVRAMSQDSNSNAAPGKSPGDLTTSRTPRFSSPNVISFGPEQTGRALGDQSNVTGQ
Assay: pull-down; SBP-tagged ASXL1^450–1,300 immobilized to Streptavidin beads, incubated with Flag-peptide-eluted FOXK1 at 4 °C for 3 h, washed 3 times, SDS-PAGE and Coomassie blue staining
Conditions: both partners purified

binding result: binds
B1: Flag-tagged full-length FOXK1 protein (natural protein, human, UniProt P85037 1-733, looked up)
chain: MAEVGEDSGARALLALRSAPCSPVLCAAAAAAAFPAAAPPPAPAQPQPPPGPPPPPPPPLPPGAIAGAGSSGGSSGVSGDSAVAGAAPALVAAAAASVRQSPGPALARLEGREFEFLMRQPSVTIGRNSSQGSVDLSMGLSSFISRRHLQLSFQEPHFYLRCLGKNGVFVDGAFQRRGAPALQLPKQCTFRFPSTAIKIQFTSLYHKEEAPASPLRPLYPQISPLKIHIPEPDLRSMVSPVPSPTGTISVPNSCPASPRGAGSSSYRFVQNVTSDLQLAAEFAAKAASEQQADTSGGDSPKDESKPPFSYAQLIVQAISSAQDRQLTLSGIYAHITKHYPYYRTADKGWQNSIRHNLSLNRYFIKVPRSQEEPGKGSFWRIDPASEAKLVEQAFRKRRQRGVSCFRTPFGPLSSRSAPASPTHPGLMSPRSGGLQTPECLSREGSPIPHDPEFGSKLASVPEYRYSQSAPGSPVSAQPVIMAVPPRPSSLVAKPVAYMPASIVTSQQPAGHAIHVVQQAPTVTMVRVVTTSANSANGYILTSQGAAGGSHDAAGAAVLDLGSEARGLEEKPTIAFATIPAAGGVIQTVASQMAPGVPGHTVTILQPATPVTLGQHHLPVRAVTQNGKHAVPTNSLAGNAYALTSPLQLLATQASSSAPVVVTRVCEVGPKEPAAAVAATATTTPATATTASASASSTGEPEVKRSRVEEPSGAVTTPAGVIAAAGPQGPGTGE
notes: FOXK1, human, full-length cDNA; Vector pRK7-N-Flag; source: HEK293T, overexpressed, purified by immunoprecipitation and eluted by Flag peptide; not shown: Flag, N-terminal, kept
